The record followed here is publication PMC12173945, “Import mechanism of peroxisomal proteins with an N-terminal signal sequence” (Nature Cell Biology, 2025).

B1: GST-tagged wild-type yeast PEX39 (GST–PEX39) [yeast] / yeast PEX7 [yeast (S. cerevisiae)] (parent complex)
chain 1: MAAGGELSYEELLDHILNNKPIPNIVEVPNVTLDEGLASTPSLRPRPRPWEGQLQHQSHQGSLDKPNISLDIDQESLEGMTSLTRLSECYDIQSKLQINDSDNDNDDNNNDNNKGDGNDDDNNTVTANPTAR
chain 2: MLRYHMQGFSGYGVQYSPFFDNRLAVAAGSNFGLVGNGKLFILEIDRSGRIVEVNSFLTQDCLFDLAWNESHENQVLVAQGDGTLRLFDTTFKEFPIAIFKEHEREVFSCNWNLVNRQNFLSSSWDGSIKIWSPLRKQSLMTLTPRPLEITKMVDPLNAIILKKKSFTGISKNRNCVYQAQFSPHDQNLVLSCSGNSYASLFDIRLPSGKNQNNFLVHSGLEALTCDFNKYRPYVVATGGVDNAIRIWDIRMLNKNESATIKRTVPGQLHNSSCINEIPNAHGLAIRKVTWSPHHSNILMSASYDMTCRIWRDLSNDGAKETYKTNSTDATKGSIFNFTQHSEFVFGADWSLWGKPGYVASTAWDGNLFVWNGLG

The variants in the assay derive from B1. The assay can be described thus: bead sedimentation (GST pull-down depletion) assay, SDS-PAGE with Coomassie quantification of PEX7 left in the supernatant; 1 µM yeast PEX7; varying GST-PEX39 concentrations; 1 h; 25 °C; parent: 0.6 nM.
Regarding chain 1 Y9A, chain 1 L12A, chain 1 L13A, chain 1 I16A, chain 1 L17A, the screen value was determined as 610 nM.
